Results: the supplement of paper PMC11136658

Tested on: peptide library, one residue held at a place counted from the Y acceptor
Assay: relative phosphorylation of the sub-library (ratio to the mean residue at this position); higher = residue favoured
How it was run: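 Peptide library mixtures, biotinylated and centred on Tyr, each fixed one residue at one position from −5 to +5. Purified recombinant kinases were incubated with them for 90 min in 384-well plates alongside 50 μM ATP and γ-32P-ATP, and the captured, rinsed peptides on streptavidin membranes were measured by phosphorimaging and ImageQuant. Normalization divided each position's intensities by the sum of its 18 randomized residues (16 for the Ser/Thr-free library) and multiplied by that number, so that values give phosphorylation relative to the mean randomized residue.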

Chain of TEK, construct: aa771-end, human (Q02763 771-1124, looked up): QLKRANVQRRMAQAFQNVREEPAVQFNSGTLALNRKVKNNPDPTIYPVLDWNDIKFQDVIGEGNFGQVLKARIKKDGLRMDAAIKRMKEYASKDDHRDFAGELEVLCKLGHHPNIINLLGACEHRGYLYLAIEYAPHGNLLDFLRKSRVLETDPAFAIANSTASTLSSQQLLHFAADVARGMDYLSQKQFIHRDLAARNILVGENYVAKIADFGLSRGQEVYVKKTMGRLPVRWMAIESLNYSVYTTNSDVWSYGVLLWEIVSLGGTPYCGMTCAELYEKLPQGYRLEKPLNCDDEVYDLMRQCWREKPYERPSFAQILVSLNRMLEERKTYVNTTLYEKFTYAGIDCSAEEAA
Chain of TNK1, construct: aa106-390, human (Q13470 106-390, looked up): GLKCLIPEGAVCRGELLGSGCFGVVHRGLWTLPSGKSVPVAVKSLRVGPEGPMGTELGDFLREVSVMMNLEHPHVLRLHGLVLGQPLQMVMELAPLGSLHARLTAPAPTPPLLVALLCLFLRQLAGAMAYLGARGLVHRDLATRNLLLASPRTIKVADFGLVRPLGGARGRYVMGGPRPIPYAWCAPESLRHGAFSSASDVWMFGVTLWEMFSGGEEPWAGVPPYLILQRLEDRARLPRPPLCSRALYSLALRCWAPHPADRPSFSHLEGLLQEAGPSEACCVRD

TEK, construct: aa771-end, human (from UniProt Q02763)
relative phosphorylation
Conditions	at +1	at +2	at +3	at +4	at +5	at -1	at -2	at -3	at -4	at -5
A fixed	0.824	0.564	0.495	0.84	1.16	0.673	0.88	0.762	1.02	0.755
D fixed	0.525	0.606	0.254	0.752	0.411	0.863	0.972	0.981	0.932	0.844
E fixed	1.78	1.11	0.233	0.854	0.367	1.07	1.19	1.06	0.927	0.772
F fixed	0.935	1.43	1.97	1.16	0.471	1.19	0.833	1.21	0.976	1.18
G fixed	0.429	0.332	0.395	1.05	1.68	0.512	1.11	0.972	1.3	1.16
H fixed	1.12	0.955	1.47	1.06	0.691	1.2	1.09	1.08	0.997	1.03
I fixed	1.37	1.07	1.89	0.823	0.478	1.42	0.936	0.794	0.792	0.969
K fixed	0.577	0.6	0.665	0.986	0.996	0.594	0.83	0.828	1.26	1.26
L fixed	1.06	1.67	1.49	1.11	0.509	1.92	0.94	0.854	0.908	0.898
M fixed	1.16	1.4	1.18	1.42	0.608	1.5	0.868	0.988	0.839	0.948
N fixed	0.54	1.01	0.429	0.846	0.844	1.03	1.15	1.27	1.09	1.14
P fixed	1.31	0.606	0.505	1.43	3.89	0.878	0.913	1	1.07	0.967
Q fixed	1.15	0.913	0.581	1.31	0.866	0.891	1.25	1.01	1.16	1.03
R fixed	0.705	0.717	0.658	1.05	0.944	0.56	0.935	0.936	1.22	1.37
S fixed	0.816	0.725	0.445	0.795	1.97	0.756	1.06	1.11	0.917	0.963
T fixed	0.951	0.873	0.746	0.734	1.03	0.921	1.08	1.06	0.789	0.955
V fixed	1.89	1.03	1.81	0.871	0.498	1.22	0.926	0.941	0.787	0.852
W fixed	0.848	2.39	2.79	0.901	0.587	0.812	1.02	1.15	1.03	0.901
pThr fixed	0.806	1.6	0.252	0.346	0.313	1.22	0.849	0.769	0.71	0.686
pTyr fixed	2.39	1.81	0.341	0.473	0.276	1.97	0.786	1.34	0.874	0.643

TNK1, construct: aa106-390, human (from UniProt Q13470)
relative phosphorylation
Conditions	at +1	at +2	at +3	at +4	at +5	at -1	at -2	at -3	at -4	at -5
A fixed	1.56	0.82	0.743	0.902	0.977	0.86	1.01	0.962	1.07	1.08
D fixed	0.25	0.328	0.335	0.714	0.594	0.276	0.529	0.641	0.78	0.845
E fixed	0.386	0.471	0.268	0.706	0.558	0.277	0.576	0.606	0.8	0.737
F fixed	1.09	1.28	1.87	1.25	1.1	1.01	0.762	0.95	0.886	0.885
G fixed	0.859	0.527	0.82	0.965	1.11	0.924	1.39	1.26	1.32	1.24
H fixed	1.12	0.884	1.24	1.1	0.947	1.64	1.14	1.09	1.01	1.1
I fixed	1.05	1.43	1.27	0.73	0.857	0.809	0.627	0.571	0.807	0.849
K fixed	1.2	1.09	0.728	1.25	1.23	1.59	1.41	1.43	1.29	1.37
L fixed	1	1.23	1.21	0.892	0.997	0.825	0.678	0.784	0.963	0.904
M fixed	1.05	1.36	1.16	1.11	1.13	0.927	0.681	0.84	0.941	0.934
N fixed	0.602	0.876	0.627	0.959	0.978	0.898	1.22	1.1	0.936	1.03
P fixed	0.544	0.843	0.976	1.15	1.53	1.18	1.36	1.33	1.44	1.26
Q fixed	1.08	0.825	0.573	1.1	0.864	1.09	1.07	0.982	1.02	1.04
R fixed	1.45	1.27	0.987	1.28	1.17	2.56	1.8	1.6	1.44	1.26
S fixed	0.936	0.787	0.661	0.901	0.982	0.779	1.23	1.15	0.863	0.999
T fixed	1.03	1.07	0.665	0.891	1.01	0.895	1.01	1.06	0.765	0.912
V fixed	1.18	1.4	1.19	0.846	0.878	0.733	0.748	0.702	0.828	0.832
W fixed	1.6	1.51	2.69	1.26	1.1	0.723	0.749	0.947	0.845	0.718
pThr fixed	0.344	0.38	0.211	0.367	0.429	0.291	0.492	0.539	0.593	0.738
pTyr fixed	0.725	0.413	0.326	0.454	0.485	0.538	0.594	0.733	0.791	0.812
